To fix the notation:
B1: EV F1 BEV 261 (nucleic acid, listed as Enterovirus sp.)
DNA: GCAATGCTGCACCAGTGCACTGGTACGCTAGTACCTTTTCACGGAGTAGATGGTATCCCTTACCCCGGAACCTAGAAGATTGCACACAAACCGACCAATAGGCGCACCGCATCCAGCCGTGCAGCGGTCAAGCACTTCTGTCTCCCCGGTCTGTAAAGATCGTTATCCGCCCGACCCACTACGAAAAGCCTAGTAACTGGCCAAGTGAACGCGAAGTTGCGCTCCGCCACAACCCCAGTGGTAGCTCTGGAAGATGGGGCTCGCACCACCCCCGTGGTAACACGGTTGCCTGCCCGCGTGTGCTTCCGGGTTCGGTCTCGTGCCGTTCACTTCAACTTCACGCAACCAGCCAAGAGCCTATTGTGCTGGGACGGTTTTCCTCCGGGGCCGTGAATGCTGCTAATCCCAACCTCCGAGCGTGTGCGCACAATCCAGTGTTGCTACGTCGTAACGCGTAAGTTGGAGGCGGAACAGACTACTTTCGGTACCCCGTGTTTCCTCTCATTTTATTTAATATTTTATGGTGACAATTGTTGAGATTTGCGCTCTTGCAACGTTGCCATTGAATATTGGCTTATACTATTTGGTTGCCTTTTACAAAACCTCTGATATACCCAGTTCTTACATTGATCTGCTTGTTTTTCTCAATTTGAAGTATAGACTACAAATAGCAAA
B2: EV J 1631 (nucleic acid, listed as Enterovirus sp.)
DNA: CACCCTGAGGGCCCACGTGGCGTAGTACTCTGGTATCAAGGTACCTTTGTACGCCTATTTTATTTCCCTTCCCCCACAGTAACTTAGAAGCTTATCTCATAGTTCAACAGTAGGGTCACTAACCAAGTGGCTCAGCGAACAAGCACTTCTGTTTCCCCGGTCCTAGTACCTGTGAAGCTGTACCCACGGCGGAAGGGGAAAAAGATCGTTATCCGGCCCCCTACTTCGGAAAGCCTAGTAACACCATTGAAGCAATCGAGTGTTGCGCTCAGCACAGTAACCCCTGTGTAGCTTTGGTTGATGAGTCTGGGCACTCCCCACTGGCGACAGCGGCCCAGGCTGCGTTGGCGGCCAACCGACTCGGGCAACCGGGTCGGACGCTCGTTTGTGGACATGGTGTGAAGAGCCTACTGAGCTAGAGGGTAGTCCTCCGGCCCCTGAATGCGGATAATCCTAACCCCGGAGCACCCACACTCAATCCAGAGTGCAGGATGTCGTAACGCGTAAGTCTGGGACGGAACCGACTACTTTGGGTGTCCGTGTTTCCTGTTTTACTTACTTTGGCTGCTTATGGTGACAATCTAGTGTTGTTACCATATAGCTATTGGATTGGCCATCCGGTGTTTTGAATTGTGTGTTTATACTAATTCTTTTACATATCACAGACAACCAAAT
B3: EV K (nucleic acid)
DNA: TCAGCCTGACGCAAGTGCCTCCATTGGAGTCTCTCCAAGCCCTCCGGGGCTTGGAGGGCGCCGACCCCCTGCCTAGGGGGAGCCCACGACACGGCTGGAGTCCATTGGCACACCGCAGCCACGATTCAAGCCAGAATTGAAAGCGGGAAGCACTTCTGTCTCCCCGGTGTGGATCATACGCTGTACCCACGGCGAAAAGTGAAGCATCGTTACCCGACTCGGTACTTCGAGAAGCCCAGTACAGTTGTGGATCTCTGCAGGGTATACGCTCAGCGTGACCCCTACGTAGTTCCTTGAGATGGCTGAGAGAACACCCCACGGGCGACCGTGTCTCTCGGCGCGTGGCTCAAGGCCGGGCCTTCAGTGGCTCGGTGCCTTGCAGAGTGAAGCCTCCGAACAGCCTATTGAGCTACCGTTTAGCCTCCGCCCTCTTGAATGCGGCTAATCCTAACCATGGAGCGCCCGCCCACAGTCCAGTGGGTAGAGCGTCGTAACGCGCAAGTCCGTGGCGGAACCGACTACTTTAGAGTGGCGTGTTTCCAATTTATCCTTTATAAAGTTGCTTATGGTGACACCACAAGAGATCCACGATTTCTTGTTTCTTATCACTGAGACACAAGTCATATTCATCAATCTTTATTGCGGAATTAACTTGGTGCGTCCAAACACATCAGC
modifications: Enterovirus K
B4: PSIV (2x mut for Xba1) (nucleic acid)
DNA: GCAAAATGGGTACGTAGTTAACCACTGCGTATCAGGATTGCAGGCCACGAAGGGTATTTGCATATCTTTCTATGCGGTATTACGGCTTAAAACCCGTTGTATCTTGTTGTTTGACTGCCTGTATCACTAGTGGCCATTTTATTTAGGTTAGAGACCCCTGATAGTAGGAGAGTTACAAACTCTTTAAAAATTGTTGACCCCGGAAAAGATGGTGACCCCTGTAAGTAGTTGATCAAGAAGATCTATGCGCTGGCATAGTAATCCAGTGTTTCCTGTTTTAGGATGACCTCTGAAAGTAGATGACCGTGGAAAGTCACGTAGTGCCCCAATAAGCACGTTTGGGCAGCGTGCGCTATCACAAGGCTTGATCTCCGAGGAGCCCCTTGTTTTAGCTGGCTGGAAGCCAATGATCTTAAGTAGATAAGTGCTGTTGCTTGTAGTTCAACAGAAAGCTTTGAGTACGTCTTTCTTGCGAGAAAGAACACATGCATTCTTATGCTCTCAATTCTATTATTTTTATTTTGGGCGAAAGGAAAGCTCTCACGCGAGTACGAATAGCCAACCCTTTAT
B5: EV J N125 (nucleic acid, listed as Enterovirus sp.)
DNA: CGGTACCTTTGTACGCCTATTTTACCCCCTTCCCCTTGTAACTTAGAAGCAAAGCAAACCAGTTCAATAGTAAGCAACACAACCCAGTGTTGTGACGAACAAGTACTTCTGTTTCCCCGGGAGGGTCTGACGGTAAGCTGTACCCACGGCTGAAGTATGACCTACCGTTAACCGGCTACCTACTTCGAGAAGTCTAGTAATACCATTGAAGTTTTGTTGGCGTTACGCTCAACACACTACCCCGTGTGTAGTTTTGGCTGATGAGTCACGGCATTCCCCACGGGCGACCGTGGCCGTGGCTGCGTTGCGGCCAACCAAGGGGCGCAAGCTCCTTGGACGTCACTTAACAGACATGGTGTGAAGAACCTATTGAGCTAGGTAGTAGTCCTCCGGCCCCTGAATGCGGCTAATCCTAACTCCGGAGCACATCAGTGCAACCCAGCATTTGGTGTGTTGTAATACGCAAGTCTGGAGCGGAACCGACTACTTTGGGTGTCCGTGTTTCCTGTTTTACCTTATTTGGCTGCTTATGGTGACAATTTGATATTGTTACCATATAGCTGTTGGATTGGCCATCCGGATTTTTGAAAGAGACCCAAAACTTTCTTCTCTACTTCAGATTCAAGTGCGAAGTTTTCCTTTTCATATATTACTTACTAATTTGAAGTACCAAAG
B6: EV I (nucleic acid)
DNA: TTAGTACTTTCTCACGGGGATAGTGGTATCCCTCCCTAGTAATTTAGAAGACTTGAAAAACCGACCAATAGGCACCTCGCATCCAGCGGGGTAAAGGTCAAGCACTTCTGTTTCCCCGGGTCGAGTAGCGATAGACTGTGCCCACGGTCGAAGGTGAAACAACCCGTTATCCGACTTTGTACTTCGGGAAGCCTAGTACCACCAAAGATTATGCTTGGGGTTTCGCTCAGCACGACCCTGGTGTAGATCAGGCCGATGGATCACCGCATTCCTCACAGGCGACTGTGGCGGTGGTCGCGTGGCAGCCTGCCGATGGGGCAACCCATCGGACGCCAAGCATATGACAGGGTGTGAAGAGCCTACTGAGCTACAAAGTATTCCTCCGGCCCCTGAATGCGGCTAATCCCAACCACGGAGCATTTGCTACCAAACCAGGTAGTGGAATGTCGTAACGGGTAACTCTGTGGCGGAACCGACTACTTTGGGTGTCCGTGTTTCCTTTTAATTTATCATTCTGTATATGGTGACAACTATAGTGCTATCTCGATTTGCATTACTATTGTTGAGATTAAAACTTTATTACATTGTTGCATTTTACCCTTTGAGTGAGTTTTCACCTGAACAGATTAATTTACTCATCCTGTTTATATATTACAAGCAGAAATACTTGCAAAG
modifications: Enterovirus I

The data set relates to HEK293 cells. The data set is classed as cell-based, human. Conditions: luminescence from secreted Gluc in supernatant 24 hours after transfection of HEK293 cells; circular RNA encoding Gluc with the named IRES (UTR truncated to 675 nt).
For the molecule B1, the Expression is given as 1.12E+07.
Next, B2: 9.88E+07.
B3 gave an Expression of 7.52E+07.
Next, B4: 9.70E+04.
As for B5, the figure is 2.90E+07.
Take B6: the Expression is 1.31E+08.

The values are drawn from patent US20230226096A1 (Orna Therapeutics, Inc., priority 2020, published 2023).
